In the Immune Epitope Database (IEDB) one finds Kd data, which are given here for six sequences.

Test [1] addresses HLA-A*02:01. As to the kind of experiment: IEDB peptide-MHC binding, purified MHC/competitive/fluorescence; filed as Kd, often an IC50 or EC50 that approximates it; ≥ and ≤ were set here for values at or beyond the usual limits of such assays. The conditions noted are these: source organism: Encephalitozoon cuniculi GB-M1.
The target in the next test is HLA-A*02:03. Described as above.
For a further test, the target named is HLA-A*02:06. The test is described as above. The conditions noted are these: source organism: Encephalitozoon cuniculi GB-M1.
A further test deals with HLA-A*02:11. Described as above. The conditions noted are these: source organism: Encephalitozoon cuniculi GB-M1.
The target in test [2] is HLA-A*02:12. The description is as above. The note with it: source organism: Encephalitozoon cuniculi GB-M1.
The target in test [3] is HLA-A*02:16. Described as above. The conditions noted are these: source organism: Encephalitozoon cuniculi GB-M1.
For another test, the target named is HLA-A*02:19. The test is described as above. The note with it: source organism: Encephalitozoon cuniculi GB-M1.
The target of another test is HLA-A*02:50. The description is as above.
The target in test [4] is HLA-A*69:01. The description is as above. The conditions noted are these: source organism: Encephalitozoon cuniculi GB-M1.
Test [5] concerns the target HLA-A*02:01. Briefly: IEDB peptide-MHC binding, purified MHC/direct/fluorescence; filed as Kd, often an IC50 or EC50 that approximates it; ≥ and ≤ were set here for values at or beyond the usual limits of such assays.
Test [6] concerns the target HLA-A*02:12. The test is described as above. The note with it: source organism: Giardia lamblia ATCC 50803.
Test [7] has as its target HLA-A*02:16. The description is as above. The note with it: source organism: Giardia lamblia ATCC 50803.
Test [8] addresses HLA-A*69:01. The description is as above.
A further test concerns the target HLA-A*01:01. The test is described as above.
For the next test, the target named is HLA-A*03:01. Described as above. The note with it: source organism: Giardia lamblia ATCC 50803.
A further test concerns the target HLA-A*11:01. The test is described as above.
In another test the target is HLA-A*26:01. The description is as above.
For a further test, the target named is HLA-A*31:01. The description is as above.
For a further test, the target named is HLA-A*68:02. The test is described as above.
The target in the next test is HLA-B*07:02. The test is described as above.
Another test addresses HLA-B*08:01. The test is described as above. The conditions noted are these: source organism: Giardia lamblia ATCC 50803.
For the next test, the target named is HLA-B*08:02. The test is described as above. The conditions noted are these: source organism: Giardia lamblia ATCC 50803.
Another test addresses HLA-B*08:03. Described as above.
The next test deals with HLA-B*15:01. Described as above.
The target in another test is HLA-B*27:05. The test is described as above.
For another test, the target named is HLA-B*40:01. The test is described as above.
The target of the next test is HLA-B*46:01. The test is described as above.
In another test the target is HLA-B*48:01. The description is as above.
Another test concerns the target HLA-B*57:01. The description is as above.
A further test addresses HLA-B*58:01. The test is described as above.
Test [9] has as its target HLA-B*15:17. Briefly: IEDB peptide-MHC binding, purified MHC/competitive/fluorescence; filed as Kd, often an IC50 or EC50 that approximates it; ≥ and ≤ were set here for values at or beyond the usual limits of such assays. The conditions noted are these: source organism: Giardia lamblia ATCC 50803.
The next test addresses HLA-A*26:02. As to the kind of experiment: IEDB peptide-MHC binding, purified MHC/direct/fluorescence; filed as Kd, often an IC50 or EC50 that approximates it; ≥ and ≤ were set here for values at or beyond the usual limits of such assays. The conditions noted are these: source organism: Variola virus.
For another test, the target named is HLA-B*15:02. The description is as above.
Test [10] deals with HLA-B*15:17. The description is as above. The note with it: source organism: Camelpox virus M-96.
The next test concerns the target HLA-B*35:01. As to the kind of experiment: IEDB peptide-MHC binding, purified MHC/competitive/fluorescence; filed as Kd, often an IC50 or EC50 that approximates it; ≥ and ≤ were set here for values at or beyond the usual limits of such assays. The conditions noted are these: source organism: Horsepox virus.
The target of the next test is HLA-B*18:01. Briefly: IEDB peptide-MHC binding, purified MHC/direct/fluorescence; filed as Kd, often an IC50 or EC50 that approximates it; ≥ and ≤ were set here for values at or beyond the usual limits of such assays. The note with it: source organism: Camelpox virus M-96.
The target in a further test is HLA-B*44:02. Described as above. The conditions noted are these: source organism: Camelpox virus M-96.
In a further test the target is HLA-B*15:09. Briefly: IEDB peptide-MHC binding, purified MHC/competitive/fluorescence; filed as Kd, often an IC50 or EC50 that approximates it; ≥ and ≤ were set here for values at or beyond the usual limits of such assays. The conditions noted are these: source organism: Vaccinia virus Copenhagen.
The next test addresses HLA-B*39:01. The description is as above. The note with it: source organism: Vaccinia virus Copenhagen.
[11] abbreviates: source organism: Encephalitozoon cuniculi GB-M1.
[12] abbreviates: source organism: Giardia lamblia ATCC 50803.
The mark [13] stands for this setting: source organism: Camelpox virus M-96.
Setting [14] is: source organism: Mycobacterium tuberculosis str. Haarlem.
[15] abbreviates: source organism: Mycobacterium tuberculosis.

As a reminder, the Kd is the free concentration of one partner at which half of the binding sites on the other are occupied at equilibrium, for simple one-to-one binding. A low value points to a tighter complex. As for ALEEGRKYV, the Kd turned out to be 0.654 µM with HLA-A*02:01 [1]; 0.029 µM in the test with HLA-A*02:03 (setting [11]); 0.0087 µM in the test with HLA-A*02:06; 0.0029 µM with HLA-A*02:11; 0.0425 µM with HLA-A*02:12 [2]; 0.0068 µM in the test with HLA-A*02:16 [3]. The Kd was 0.437 µM in the test with HLA-A*02:19, 0.0123 µM with HLA-A*02:50 (setting [11]) and 5.7 µM with HLA-A*69:01 [4].

As for GMNPYHLAA, the Kd with HLA-A*02:01 [5] (setting [12]) is 4.38 µM; in the test with HLA-A*02:12 [6], 0.296 µM; with HLA-A*02:16 [7] it was 0.065 µM; with HLA-A*69:01 [8] (setting [12]), at least 20 µM; with HLA-A*02:50 (setting [12]), 0.0127 µM.

IARLVYKAR: the Kd was at least 20 µM with HLA-A*01:01 (setting [12]); at least 20 µM with HLA-A*02:01 [5] (setting [12]); at least 20 µM in the test with HLA-A*03:01; at least 20 µM with HLA-A*11:01 (setting [12]); at least 20 µM in the test with HLA-A*26:01 (setting [12]); 0.0353 µM with HLA-A*31:01 (setting [12]). Besides, the dissociation constant Kd with HLA-A*68:02 (setting [12]), in the test with HLA-A*69:01 [8] (setting [12]), in the test with HLA-B*07:02 (setting [12]), with HLA-B*08:01, in the test with HLA-B*08:02 and with HLA-B*08:03 (setting [12]) was at least 20 µM each time. Further, the Kd with HLA-B*15:01 (setting [12]), in the test with HLA-B*27:05 (setting [12]), with HLA-B*40:01 (setting [12]), with HLA-B*46:01 (setting [12]), with HLA-B*48:01 (setting [12]) and with HLA-B*57:01 (setting [12]) was at least 20 µM each time. Also, the equilibrium dissociation constant (Kd) with HLA-B*58:01 (setting [12]), with HLA-A*02:03 (setting [12]) and in the test with HLA-B*15:17 [9] was at least 20 µM in each case.

LLRDKDGVY: the Kd with HLA-A*01:01 (setting [13]), with HLA-A*02:01 [5] (setting [13]), with HLA-A*11:01 (setting [13]), with HLA-A*26:01 (source organism: Variola virus), with HLA-A*26:02 and in the test with HLA-A*31:01 (setting [13]) was at least 20 µM each time. Besides, the Kd was at least 20 µM with HLA-A*68:02 (setting [13]); at least 20 µM with HLA-A*69:01 [8] (setting [13]); at least 20 µM in the test with HLA-B*07:02 (setting [13]); at least 20 µM with HLA-B*08:03 (source organism: Variola virus); 0.0693 µM in the test with HLA-B*15:01 (setting [13]); 0.043 µM in the test with HLA-B*15:02 (source organism: Variola virus). For the same sequence, the Kd with HLA-B*15:17 [10] is 0.393 µM; with HLA-B*27:05 (setting [13]), at least 20 µM; with HLA-B*46:01 (setting [13]) it was at least 20 µM; with HLA-B*48:01 (setting [13]) it was at least 20 µM; with HLA-B*57:01 (setting [13]), at least 20 µM; with HLA-B*58:01 (setting [13]), at least 20 µM. Moreover, the Kd with HLA-B*35:01 amounted to 0.0677 µM.

On to SMRFESSPH, for which the Kd with HLA-B*07:02 (setting [14]) amounted to 5.35 µM; with HLA-B*15:01 (setting [15]) it was 0.0093 µM; with HLA-B*15:02 (setting [14]), 0.049 µM; in the test with HLA-B*46:01 (setting [15]) it was 15.5 µM.

With WENGFKVVL, the Kd in the test with HLA-A*01:01 (setting [13]), with HLA-A*02:01 [5] (setting [13]), in the test with HLA-A*11:01 (setting [13]), with HLA-A*31:01 (setting [13]), with HLA-A*68:02 (setting [13]) and with HLA-A*69:01 [8] (setting [13]) was at least 20 µM in each case. The Kd in the test with HLA-B*07:02 (setting [13]) was at least 20 µM; with HLA-B*15:17 [10] it was at least 20 µM; in the test with HLA-B*18:01, at most 0.001 µM; in the test with HLA-B*27:05 (setting [13]) it was at least 20 µM; in the test with HLA-B*40:01 (setting [13]), 0.004 µM; with HLA-B*44:02 it was at least 20 µM. The Kd with HLA-B*48:01 (setting [13]) is 0.101 µM; with HLA-B*57:01 (setting [13]) it was at least 20 µM; in the test with HLA-B*58:01 (setting [13]), at least 20 µM; in the test with HLA-B*15:09, 3.09 µM; with HLA-B*39:01, 0.493 µM.
